From patent publication US20240327505A1 (published 2024) come the findings set out here.

Assay [1] deals with SARS-CoV-2 Spike (S) trimer (SARS-CoV-2, UniProt P0DTC2 16-1213). Kind of assay: ELISA on coated S trimer, 1:50. For orientation: ELISA stands for enzyme-linked immunosorbent assay.
Assay [2] has as its target SARS-CoV-2 spike S2 protein (SARS-CoV-2, UniProt P0DTC2 686-1213).
The target of assay [3] is SARS-CoV-2 Envelope (E) protein (SARS-CoV-2, UniProt P0DTC4 1-75). The assay can be described thus: ELISA, Envelope.
Assay [4] addresses T1, SARS-CoV-2 spike S2 protein (SARS-CoV-2, UniProt P0DTC2 686-1213).
T1 construct: domain: S2
Kind of assay: BLI, as in Example 4. (In general: Biolayer interferometry detects binding as a change in optical thickness at a sensor tip.)

Assay [5] addresses SARS-CoV-2 Wuhan-1 full-length Spike protein on pseudovirus (SARS-CoV-2, UniProt P0DTC2 14-1273). The assay can be described thus: cell-based or functional assay.
In assay [6] the target is SARS-CoV-2 spike protein on fully infectious (replication-competent) SARS-CoV-2 virus (SARS-CoV-2, UniProt P0DTC2 14-1273). Kind of assay: cell-based or functional assay.
For assay [7], the target named is SARS-CoV-1 spike protein on pseudovirus (SARS-CoV-1, UniProt P59594 14-1255). Kind of assay: cell-based or functional assay.
Assay [8] has as its target SARS-CoV-2 Spike (S) trimer (SARS-CoV-2, UniProt P0DTC2 16-1213). The assay can be described thus: ELISA, S trimer coated, antibody at 1:50 dilution.
Assay [9] addresses SARS-CoV-2 Nucleocapsid (N) protein (SARS-CoV-2, UniProt P0DTC9 1-419).
In a further assay the target is SARS-CoV-2 S2 protein (SARS-CoV-2, UniProt P0DTC2 686-1213).
In assay [10] the target is SARS-CoV-2 Nucleocapsid (N) protein (SARS-CoV-2, UniProt P0DTC9 1-419). The source holds these as a separate data set.

A word on the Kd: it is the equilibrium constant for the complex coming apart. As a reminder, the koff is the first-order rate constant of dissociation. Read a low koff as a long-lived complex. In general, kon refers to the second-order rate constant of association. A lower kon goes with slow association.

B1: AB-009325 (antibody, V domains shown)
VH: QVQLVESGGGVVQPGRSLRLSCAASGFTFNNYGMHWVRQAPGKGLEWVALISYEGSLKYYGDSVRGRFTVSRDNSRNTLYLQMNSLRVDDTAVYYCAKAGGIFAIHYYGMNVWGQGTTVTVSS
VL: QSVLTQPPSVSAAPGQKVTISCSGSSSNIGKNYVSWYRQFPGTAPKLLIYDNNKRPSGIPDRFSGSKSDTSATLGITGLQTGDEADYYCVTWDSSLSAGVFGGGTKLTVL
For B1, in [1], the “OD 450 nm” value amounted to 1.39 OD. In assay [2], this molecule displayed a Kd of 0.0467 nM, a koff of 2.77e-07 s⁻¹ and a kon of 5930 M⁻¹ s⁻¹. The “OD 450 nm” value in assay [3] worked out at 0.32 OD.

B2: AB-009357 (antibody, V domains shown)
VH: QLQLQESGPGLVKPSETLSLTCTVSGGSISSSSYYWGWIRQPPGKGLEWIGSIYYSGSTYYNPSLKSRVTISVDTSKNQFSLKLSSVTAADTAVYYCARHPLSSITIFGVVKREYYFDYWGQGTLVTVSS
VL: DIQMTQSPSSVSASVGDRVTITCRASQGISSWLAWYQQKPGKAPKLLIYAASSLQSGVPSRFSGSGSGTDFTLTISSLQPEDFATYYCQQANSFPLLFGGGTKVEIK
Consider B2, for which the “OD 450 nm” value in assay [1] was determined as 2.77 OD; in assay [3] it was 0.221 OD.

B3: AB-009335 (antibody, V domains shown)
VH: QVQLQESGPGLVKPSETLSLTCTVSGGSISSHYWSWIRQPPGKGLEWIGYIYYSGSTNYNPSLKSRVTISVDTSKNQFSLKLSSVTAADTAVYYCARVRREWLAAYFYYGMDVWGQGTTVTVSS
VL: DIQMTQSPSSLSASVGDRVTITCRASQGISNYLAWYQQKPGKVPKLLIYAASTLQSGVPSRFSGSGSGTDFTLTISSLQPEDVATYYCQKYNSAPLTFGGGTKVEIK
As for B3, the results for the “OD 450 nm” value in [1] and in assay [3] were 1.03 OD and 0.4 OD, respectively.

B4: AB-009610 (antibody, V domains shown)
VH: QVQLVQSGAEVKKPGSSVKVSCKASGGTFSNYAISWVRQAPGQGLEWMGRIIPILGIANYAQKFQGRVTITADKSTSTAYMELSSLRSEDTAVYYCATTPYYYDSSGYYLDYWGQGTLVTVSS
VL: not shown
Regarding B4, in assay [4], the binding result is on record as “no binding”. For the same molecule, the “Pseudovirus Neturalization” value was 6.77 µg/mL in assay [5] and more than 50 µg/mL in [7]. The “Neutralization (Infectious virus; (µg/mL))” value (“Neutralization” for short) in assay [6] is 6.25 µg/mL.

B5: AB-009613 (antibody, V domains shown)
VH: EVQLVESGGGLIQPGGSLRLSCAASGFTVSSNYMSWVRQAPGKGLEWVSVIYSGGSTYYADSVKGRFTISRDNSKNTLYLQMNSLRAEDTAVYYCARDYGDFYFDYWGQGTLVTVSS
VL: not shown
On to B5, for which the binding result in [4] is on record as “no binding”. The “Pseudovirus Neturalization” value in assay [5] is 1.53 µg/mL; in assay [7], more than 50 µg/mL. Also, in assay [6], the “Neutralization” value is 3.4 µg/mL.

B6: AB-009271 (antibody, V domains shown)
VH: EVQLVESGGGLIQPGGSLRLSCAASGFIVSSNYMSWVRQAPGKGLEWVSVIYSGGSTYYADSVKGRFTISRDNSKNTLYLQMNSLRAEDTAVYYCARDYGDFYFDYWGQGTLVTVSS
VL: EIVMTQSPATLSVSPGERATLSCRASQSVSSNLAWYQQKPGQAPRLLIYGASTRATGIPARFSGSGSGTEFTLTISSLQSEDFAVYYCQQYYNWPRTFGQGTKVEIK
Consider B6, for which, in assay [4], the binding result was “no binding”. The “Pseudovirus Neturalization” value in assay [5] was 0.058 µg/mL; in assay [7], more than 50 µg/mL. In addition, in assay [6], the “Neutralization” value came to 0.181 µg/mL.

B7: AB-009271 (antibody, V domains shown)
VH: EVQLVESGGGLIQPGGSLRLSCAASGFIVSSNYMSWVRQAPGKGLEWVSVIYSGGSTYYADSVKGRFTISRDNSKNTLYLQMNSLRAEDTAVYYCARDYGDFYFDYWGQGTLVTVSS
VL: EIVMTQSPATLSVSPGERATLSCRASQSVSSNLAWYQQKPGQAPRLLIYGASTRATGIPARFSGSGSGTEFTLTISSLQSEDFAVYYCQQYYNWPRTFGQGTKVEIK
Turning to B7, the “Optical Density (OD; 450 nm)” value in assay [8] was 2.94 OD 450 nm.

B8: AB-009778 (antibody, V domains shown)
VH: QLQLQESGPGLVKPSETLSLTCTVSGGSISSSSYYWGWIRQPPGKGLEWIGSIYYSGSTYYNPSLKSRVTISVDTSKNQFSLKLSSVTAADTAVYYCARQFRRWLQLGPSYFDYWGQGTLVTVSS
VL: not shown
In assay [9], B8 displayed a dissociation constant Kd of 48.5 nM, a koff of 0.000866 s⁻¹ and a kon of 17800 M⁻¹ s⁻¹.

B9: AB-009734 (antibody, V domains shown)
VH: QVHLVQSGAEVKTPGASVRVSCKASGYTFTSHYMHWVRQAPGQGLEWMGLINPSGSGTAYPQHFQGRVTMTRDTSTTTDYMDLSSLRSEDTAMYFCARMERSGAFDLWGQGTMVTVSS
VL: EIVLTQSPGTLSLSPGERATLSCRASQTISSRYLAWYYQKPGQAPRLLIQGSSIRATGIPDRFSGSGSGTDFTLTISRLEPEDFAVYYCQHYGSSPPMYTFGQGTKLEIK
In [9], B9 gave a Kd of 22.2 nM, a koff of 0.000979 s⁻¹ and a kon of 44000 M⁻¹ s⁻¹. In the assay with SARS-CoV-2 S2 protein, this molecule showed a Kd of 12.4 nM, a koff of 0.000103 s⁻¹ and a kon of 8280 M⁻¹ s⁻¹.

B10: AB-009620 (antibody, V domains shown)
VH: QITLKESGPTLVKPTQTLTLTCTFSGFSLSTSGVGVGWIRQPPGKALEWLALIYWDDDKRYSPSLKSRLTITKDTSKNQVVLTMTNMDPVDTATYYCAHHEVATVFDYWGQGTLVTVSS
VL: QSALTQPASVSGSPGQSITISCTGTSSDVGAYNYVSWYQQHPGKAPKLMIYEVSNRPSGVSNRFSGSKSGNTASLTISGLQAEDEADYYCSSYTSSSTVFGGGTKLTVL
Take B10: the binding result in [4] is listed as “no binding”. In addition, the “Pseudovirus Neturalization” value is 1.04 µg/mL in assay [5] and more than 50 µg/mL in assay [7]. In assay [6], the “Neutralization” value turned out to be 13.3 µg/mL.

B11: AB-009270 (antibody, V domains shown)
VH: QMQLVQSGPEVKKPGTSVKVSCKASGFTFTSSAMQWVRQARGQRLEWIGWIVVGSGNTNYAQKFQERVTITRDMSTSTAYMELSSLRSEDTAVYYCAVNYCSSTSCYDAFDIWGQGTMVTVSS
VL: not shown
B11: the binding result in assay [4] was “no binding”. Further, the “Pseudovirus Neturalization” value in assay [5] is 0.065 µg/mL; in assay [7], more than 50 µg/mL. Moreover, the “Neutralization” value in [6] came out at 1.37 µg/mL.

B12: AB-010021 (antibody, V domains shown)
VH: QMQLVQSGPEVKKPGTSVKVSCKASGFTFTSSAVQWVRQARGQRLEWIGWIVVGSGNTNYAQKFQERVTITRDMSTSTAYMELSSLRSEDTAVYYCAAVYCSGGSCLDAFDIWGQGTMVTVSS
VL: not shown
notes: also called AB-0010021
On to B12, for which, in assay [4], the binding result was “no binding”. Besides, the “Pseudovirus Neturalization” value is 1.56 µg/mL in [5] and more than 50 µg/mL in assay [7].

B13: AB-010020 (antibody, V domains shown)
VH: QMQLVQSGPEVKKPGTSVKVSCKASGFTFTSSAVQWVRQARGQRLEWIGWIVVGSGNTNYAQKFQERVTITRDMSTSTAYMELSSLRSEDTAVYYCAAPACSSTSCYDGFDIWGQGTMVTVSS
VL: not shown
Regarding B13, in assay [4], the binding result is “no binding”. Further, the entries for the “Pseudovirus Neturalization” value in assay [5] and in assay [7] were 0.004 µg/mL and more than 50 µg/mL, respectively.

B14: AB-009627 (antibody, V domains shown)
VH: QVQLQQWGAGLLKPSETLSLTCAVYGGSFSGYYWSWIRQPPGKGLEWIGEINHSGSTNYNPSLKSRVTISVDTSKNQFSLKLSSVTAADTAVFYCARGGYSSSWYGEKYWFDPWGQGTLVTVSS
VL: QSALTQPRSVSGSPGQSVTISCTGTSSDVGGYNYVSWYQQHPGKAPKLMIYDVSKRPSGVPDRFSGSKSGNTASLTISGLQAEDEADYYCCSYAGSPYVFGTGTKVTVL
In the assay with SARS-CoV-2 S2 protein, B14 had a Kd of 0.246 nM, a koff of 2.85e-07 s⁻¹ and a kon of 1160 M⁻¹ s⁻¹.

B15: AB-009190 (antibody, V domains shown)
VH: QVQLVESGGGVVQPGRSLRLSCAASGFTFSSYAMHWVRQAPGKGLEWVAVISYDGSNKYYADSVKGRFTISRDNSKNTLYLQMNSLRAEDTAVYYCARLNGDAYYYYGMDVWGQGTTVTVSS
VL: not shown
For B15, in assay [10], binding was put at a Kd of 54.1 nM, the koff amounted to 0.000947 s⁻¹ and the kon turned out to be 17500 M⁻¹ s⁻¹. Further, the “OD 450 nm” value in [3] was 0.469 OD.

B16: AB-009119 (antibody, V domains shown)
VH: EVQLVESGGGLVQPGGSLKLSCAASGFTFSGSAMHWVRQASGKGLEWVGRIRSKANSYATAYAASVKGRFTISRDDSKNTAYLQMNSLKTEDTAVYYCTRHGTTVNWGQGTLVTVSS
VL: not shown
With B16, in assay [2], the affinity, expressed as Kd, was 0.0583 nM; the koff was 2.56e-07 s⁻¹; the kon was 4390 M⁻¹ s⁻¹. In [10], the affinity, expressed as Kd, was 7.35 nM; the koff amounted to 0.000647 s⁻¹; the kon came out at 88000 M⁻¹ s⁻¹.

B17: AB-009791 (antibody, V domains shown)
VH: QLQLQESGPGLVKPSETLSLTCTVSGGSISSSSYYWGWIRQPPGKGLEWIGSIYYSGSTYYNPSLKSRVTISVDTSKNQFSLKLSSVTAADTAVYYCAREPRRVKQWLVVPYYYMDVWGKGTTVTVSS
VL: not shown
Take B17: in assay [9], the Kd amounted to 4.61 nM, the koff was 8.35e-05 s⁻¹ and the kon was determined as 18100 M⁻¹ s⁻¹.

B18: AB-009799 (antibody, V domains shown)
VH: QVQLVQSGAEVKKPGASVKVSCKASGYTFTSYDINWVRQATGQGLEWMGWMNPNSGNTGYAQKFQGRVTMTRNTSISTAYMELSSLRSEDTAVYYCARGRLRITIFNRVYYFDYWGQGTLVTVSS
VL: not shown
For B18, in assay [9], the Kd amounted to 19.6 nM, the koff turned out to be 0.000265 s⁻¹ and the on-rate constant (kon) turned out to be 13600 M⁻¹ s⁻¹.
